In paper PMC4451460 (2015):

B1: truncated peptide HTT(1-14) (peptide)
peptide: MATLEKLMKAFESL
B2: HTT(1-17) peptide, the 17 N-terminal residues of huntingtin (peptide)
peptide: MATLEKLMKAFESLKSF
B3: truncated peptide HTT(1-15) (peptide)
peptide: MATLEKLMKAFESLK
B4: truncated peptide HTT(1-16) (peptide)
peptide: MATLEKLMKAFESLKS

These binders were tested against C4 single-chain Fv antibody (C4 scFv) (human (from a human scFv phage-display …)) (assay: ITC).

Ka | Binder
3.09e+06 M⁻¹ | B1
1.8e+07 M⁻¹ | B2
6.87e+06 M⁻¹ | B3
9.08e+06 M⁻¹ | B4
